1 molecule from patent US20240092916A1 (Astellas, published 2024) can be followed below.

What all share (assay): ELISA, antigen immobilized at 1 µg/mL, detection with anti-human kappa-HRP
Background: ELISA stands for enzyme-linked immunosorbent assay.

Assay [1] concerns the target T1, ActRIIA-His (LifeSpan Biosciences, LS-G39063) (Homo sapiens (Human), UniProt P27037 20-135).
T1 construct: Bought reagent
How it is done: (§1) The binding activities of the humanized 75E9STF8-1 obtained in Example 4 to ActRIIA, ActRIIB, and Fn14 were evaluated. ActRIIA-His (LifeSpan Biosciences, LS-G39063), ActRIIB-His (LifeSpan Biosciences, LS-G38834), and the human Fc fusion proteins including the extracellular domain of human Fn14 prepared in Example 3 were each diluted to 1 μg/mL with phosphate-buffered physiological saline (PBS), each added to a Maxisorp 384-well transparent plate (Nunc, 464718) at 15 μL/well, and incubated at 4° C. overnight for immobilization. On the next day, the solid phase liquid was removed and washing was performed with a 0.05% Tween-20-containing Tris-buffered physiological saline (TBS-T). Thereafter, PBS including 20% Blocking One (Nacalai tesque, Inc., 03953-95) was added thereto at 50 μL/well, and the mixture was left to stand at room temperature for 1 hour and then washed with TBS-T. Dilution series of humanized 75E9STF8-1 were prepared by dilution in 12 steps at a 4-fold common ratio from the maximum concentration of 30 μg/mL, and added at 20 μL/well. TBS-T including 5% Blocking One was used as a diluent. After incubation for 1 hour at room temperature, washing was performed with TBS-T. As a detection antibody, Goat Anti-Human Kappa, Mouse ads-HRP (SouthernBiotech, 2061-05) which had been 4,000-fold diluted with a diluent (TBS-T including 5% Blocking One) was added at 20 μL/well. After incubating at room temperature for 1.5 hours, the cells were washed with TBS-T, TMB+Substrate-Chromogen (DAKO, S159985) was added thereto, the mixture was left to stand, 1 M sulfuric acid was added thereto to stop the reaction, and the absorbance at 450 nm was measured with Infinite (registered trademark) 200 Pro (TECAN).

The target in assay [2] is T2, human Fc fusion protein including the extracellular domain of human Fn14 (human, UniProt Q9NP84 28-80).
T2 construct: extracellular domain; not shown: human Fc
T2 sequence (looked up): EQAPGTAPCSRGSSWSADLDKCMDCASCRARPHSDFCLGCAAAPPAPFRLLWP
On the procedure: as §1

The target in assay [3] is T3, ActRIIB-His (LifeSpan Biosciences, LS-G38834) (Homo sapiens (Human), UniProt Q13705 19-137).
T3 construct: Bought reagent
T3 sequence: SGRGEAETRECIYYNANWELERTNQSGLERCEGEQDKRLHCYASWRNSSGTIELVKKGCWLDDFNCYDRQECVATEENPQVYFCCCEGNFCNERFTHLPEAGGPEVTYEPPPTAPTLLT
How it is done:
as §1

T1 sequence (P27037 20-135 limits assumed, form in doubt, one chain of several): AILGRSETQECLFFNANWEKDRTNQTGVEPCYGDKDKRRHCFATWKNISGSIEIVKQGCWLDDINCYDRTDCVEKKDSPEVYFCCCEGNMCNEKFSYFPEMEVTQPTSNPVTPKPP

B1: humanized 75E9STF8-1 (bispecific antibody, human IgG1, kappa, L234A L235A)
heavy: EVQLVESGGGLVQPGGSLRLSCAASRSIFAYGTMAWYRQAPGKGRELVATISGGGTTSYSDSVKGRFTISRDNGKSTVYLQMNSLRAEDTAVYYCNKRSIGTNDFWGQGTLVTVSSGGGGSGGGGSGGGGSGGGGSGGGGSEVQLVESGGGLVQPGGSLRLSCAASGFTLTTNALIWGRQAPGAAPGKGPEWVAGIRADGRPYYGDSMKGRVTISRDIAKNTAYLQMNSLRPEDTAVYFCATRLDDSGTYDRGRGTTVTVSSGGGGSGGGGSEVQLVESGGGLVKPGGSLRLSCAASGITFSTYGMNWVRQAPGKGLEWVSSISSRSIHISYADSVKGRFTISRDNAKNSLYLQMSSLRADDTAVYYCARDRGAAAFDYWGRGTLVAVSSASTKGPSVFPLAPSSKSTSGGTAALGCLVKDYFPEPVTVSWNSGALTSGVHTFPAVLQSSGLYSLSSVVTVPSSSLGTQTYICNVNHKPSNTKVDKKVEPKSCDKTHTCPPCPAPEAAGGPSVFLFPPKPKDTLYITREPEVTCVVVDVSHEDPEVKFNWYVDGVEVHNAKTKPREEQYNSTYRVVSVLTVLHQDWLNGKEYKCKVSNKALPAPIEKTISKAKGQPREPQVYTLPPSRDELTKNQVSLTCLVKGFYPSDIAVEWESNGQPENNYKTTPPVLDSDGSFFLYSKLTVDKSRWQQGNVFSCSVMHEALHNHYTQKSLSLSPGK
light: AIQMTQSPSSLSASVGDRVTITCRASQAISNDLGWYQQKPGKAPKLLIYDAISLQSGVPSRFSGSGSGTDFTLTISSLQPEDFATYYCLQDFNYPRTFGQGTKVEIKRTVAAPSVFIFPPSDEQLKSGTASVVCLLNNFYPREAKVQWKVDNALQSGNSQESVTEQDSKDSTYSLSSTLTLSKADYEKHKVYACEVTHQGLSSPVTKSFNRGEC
notes: Expressed in CHO-K1SV cells
For orientation: EC50 means the concentration needed to bring the measured effect to its halfway point. The low end stands for greater potency, the high end for weaker potency. For the molecule B1, the EC50 stood at 5.03 ng/mL in assay [1], 23.3 ng/mL in assay [2] and 9.24 ng/mL in assay [3].
